# T1: recombinant Factor VIII (CSL627, rVIII-SingleChain) (Homo sapiens (Human), UniProt P00451 20-2351)
# T1 construct: also called FVIII
# T1 sequence: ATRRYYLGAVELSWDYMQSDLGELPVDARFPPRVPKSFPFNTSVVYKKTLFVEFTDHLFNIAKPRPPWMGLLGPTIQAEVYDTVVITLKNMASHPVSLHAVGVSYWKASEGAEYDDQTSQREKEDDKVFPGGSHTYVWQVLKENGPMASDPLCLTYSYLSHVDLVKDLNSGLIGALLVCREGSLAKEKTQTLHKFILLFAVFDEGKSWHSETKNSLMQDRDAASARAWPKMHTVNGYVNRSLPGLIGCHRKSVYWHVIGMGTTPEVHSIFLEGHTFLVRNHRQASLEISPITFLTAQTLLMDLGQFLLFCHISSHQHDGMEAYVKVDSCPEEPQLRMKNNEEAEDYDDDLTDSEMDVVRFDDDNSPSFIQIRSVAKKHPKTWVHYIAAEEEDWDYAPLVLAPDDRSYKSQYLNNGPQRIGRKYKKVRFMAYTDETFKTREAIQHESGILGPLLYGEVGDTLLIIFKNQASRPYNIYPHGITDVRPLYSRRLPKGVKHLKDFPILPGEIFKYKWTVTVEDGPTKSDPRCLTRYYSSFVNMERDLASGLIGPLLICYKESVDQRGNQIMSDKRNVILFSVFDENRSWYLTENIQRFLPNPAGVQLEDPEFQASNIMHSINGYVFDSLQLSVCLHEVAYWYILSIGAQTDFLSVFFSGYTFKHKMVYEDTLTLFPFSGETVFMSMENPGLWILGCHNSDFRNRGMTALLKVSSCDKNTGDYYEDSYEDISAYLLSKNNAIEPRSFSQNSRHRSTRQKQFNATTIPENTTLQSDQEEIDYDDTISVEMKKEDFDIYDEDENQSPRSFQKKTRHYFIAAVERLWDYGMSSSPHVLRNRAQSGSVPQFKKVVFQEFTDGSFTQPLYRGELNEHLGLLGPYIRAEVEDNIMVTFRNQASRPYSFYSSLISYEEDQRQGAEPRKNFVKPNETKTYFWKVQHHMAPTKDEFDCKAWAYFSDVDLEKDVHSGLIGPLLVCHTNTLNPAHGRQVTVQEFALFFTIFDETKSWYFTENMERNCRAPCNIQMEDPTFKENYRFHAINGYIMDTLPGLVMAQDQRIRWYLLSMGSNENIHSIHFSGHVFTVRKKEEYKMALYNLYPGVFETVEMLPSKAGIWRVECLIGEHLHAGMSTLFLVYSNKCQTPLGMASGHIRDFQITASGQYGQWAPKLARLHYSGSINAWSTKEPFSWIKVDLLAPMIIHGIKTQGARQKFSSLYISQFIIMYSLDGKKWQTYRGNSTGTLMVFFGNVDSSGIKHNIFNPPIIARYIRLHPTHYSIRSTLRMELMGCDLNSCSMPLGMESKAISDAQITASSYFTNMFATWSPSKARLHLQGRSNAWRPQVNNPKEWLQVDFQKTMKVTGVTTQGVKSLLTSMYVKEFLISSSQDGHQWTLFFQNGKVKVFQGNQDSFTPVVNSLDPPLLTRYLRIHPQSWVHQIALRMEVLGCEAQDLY
# Target: T1, recombinant Factor VIII (CSL627, …)
# Experiment: SPR, anti-His capture
# Description: Binding kinetics were investigated by surface plasmon resonance using a Biacore 4000 biosensor at 37° C. Each mutant was captured from cell culture medium to a density of 40-150 RU on a CM-5 sensor chip pre-immobilised with anti-His antibody (14,000 RU). In an initial screening study, FVIII was injected over the captured mutants for 5 minutes at 1 nM and dissociation monitored for 5 minutes.
# All sensorgrams were double referenced by subtraction of signals from a reference spot (containing only immobilised anti His antibody) and from a blank injection. Binding kinetics were determined by fitting the double referenced sensorgrams to a 1:1 kinetic model.
Kd [pM],koff [s⁻¹],kon [M⁻¹ s⁻¹],Binder
6.39,0.000292,4.56e+07,Hu-vWF[764-1270]-8His S764H/S766Y (other) HLYCRPPMVKLVCPADNLRAEGLECTKTCQNYDLECMSMGCVSGCLCPPGMVRHENRCVALERCPCFHQGKEYAPGETVKIGCNTCVCRDRKWNCTDHVCDATCSTIGMAHYLTFDGLKYLFPGECQYVLVQDYCGSNPGTFRILVGNKGCSHPSVKCKKRVTILVEGGEIELFDGEVNVKRPMKDETHFEVVESGRYIILLLGKALSVVWDRHLSISVVLKQTYQEKVCGLCGNFDGIQNNDLTSSNLQVEEDPVDFGNSWKVSSQCADTRKVPLDSSPATCHNNIMKQTMVDSSCRILTSDVFQDCNKLVDPEPYLDVCIYDTCSCESIGDCACFCDTIAAYAHVCAQHGKVVTWRTATLCPQSCEERNLRENGYECEWRYNSCAPACQVTCQHPEPLACPVQCVEGCHAHCPPGKILDELLQTCVDPEDCPVCEVAGRRFASGKKVTLNPSDPEHCQICHCDVVNLTCEACQEPGGLVVPPTDAPVSPTTLYVEDISEPPLHDFHHHHHHHH
43.5,0.000822,1.89e+07,Hu-vWF[764-1270]-8His S764K/S766Y (other) KLYCRPPMVKLVCPADNLRAEGLECTKTCQNYDLECMSMGCVSGCLCPPGMVRHENRCVALERCPCFHQGKEYAPGETVKIGCNTCVCRDRKWNCTDHVCDATCSTIGMAHYLTFDGLKYLFPGECQYVLVQDYCGSNPGTFRILVGNKGCSHPSVKCKKRVTILVEGGEIELFDGEVNVKRPMKDETHFEVVESGRYIILLLGKALSVVWDRHLSISVVLKQTYQEKVCGLCGNFDGIQNNDLTSSNLQVEEDPVDFGNSWKVSSQCADTRKVPLDSSPATCHNNIMKQTMVDSSCRILTSDVFQDCNKLVDPEPYLDVCIYDTCSCESIGDCACFCDTIAAYAHVCAQHGKVVTWRTATLCPQSCEERNLRENGYECEWRYNSCAPACQVTCQHPEPLACPVQCVEGCHAHCPPGKILDELLQTCVDPEDCPVCEVAGRRFASGKKVTLNPSDPEHCQICHCDVVNLTCEACQEPGGLVVPPTDAPVSPTTLYVEDISEPPLHDFHHHHHHHH
2.27,7.99e-05,3.52e+07,Hu-vWF[764-1270]-8His S764L/S766Y (other) LLYCRPPMVKLVCPADNLRAEGLECTKTCQNYDLECMSMGCVSGCLCPPGMVRHENRCVALERCPCFHQGKEYAPGETVKIGCNTCVCRDRKWNCTDHVCDATCSTIGMAHYLTFDGLKYLFPGECQYVLVQDYCGSNPGTFRILVGNKGCSHPSVKCKKRVTILVEGGEIELFDGEVNVKRPMKDETHFEVVESGRYIILLLGKALSVVWDRHLSISVVLKQTYQEKVCGLCGNFDGIQNNDLTSSNLQVEEDPVDFGNSWKVSSQCADTRKVPLDSSPATCHNNIMKQTMVDSSCRILTSDVFQDCNKLVDPEPYLDVCIYDTCSCESIGDCACFCDTIAAYAHVCAQHGKVVTWRTATLCPQSCEERNLRENGYECEWRYNSCAPACQVTCQHPEPLACPVQCVEGCHAHCPPGKILDELLQTCVDPEDCPVCEVAGRRFASGKKVTLNPSDPEHCQICHCDVVNLTCEACQEPGGLVVPPTDAPVSPTTLYVEDISEPPLHDFHHHHHHHH
9.23,9.52e-05,1.03e+07,Hu-vWF[764-1270]-8His S764I/S766Y (other) ILYCRPPMVKLVCPADNLRAEGLECTKTCQNYDLECMSMGCVSGCLCPPGMVRHENRCVALERCPCFHQGKEYAPGETVKIGCNTCVCRDRKWNCTDHVCDATCSTIGMAHYLTFDGLKYLFPGECQYVLVQDYCGSNPGTFRILVGNKGCSHPSVKCKKRVTILVEGGEIELFDGEVNVKRPMKDETHFEVVESGRYIILLLGKALSVVWDRHLSISVVLKQTYQEKVCGLCGNFDGIQNNDLTSSNLQVEEDPVDFGNSWKVSSQCADTRKVPLDSSPATCHNNIMKQTMVDSSCRILTSDVFQDCNKLVDPEPYLDVCIYDTCSCESIGDCACFCDTIAAYAHVCAQHGKVVTWRTATLCPQSCEERNLRENGYECEWRYNSCAPACQVTCQHPEPLACPVQCVEGCHAHCPPGKILDELLQTCVDPEDCPVCEVAGRRFASGKKVTLNPSDPEHCQICHCDVVNLTCEACQEPGGLVVPPTDAPVSPTTLYVEDISEPPLHDFHHHHHHHH

# Source: patent publication US20190015483A1 (CSL BEHRING RECOMBINANT FACILITY, published 2019)
